{"source": "patent US10555963B2", "about": "“Klotho protein and related compounds for the treatment and diagnosis of cancer” (TEL HASHOMER MEDICAL RESEARCH INFRASTRUCTURE AND SERVICES …, priority 2007, dated 2020)", "key": {"[1]": {"system": "human embryonic kidney (HEK) 293 cells", "assay": "Colony formation assay after transfection with klotho protein expression vector", "type": "cell-based", "details": "transfected pcDNA3-HA-KL vs empty vector", "method": "Two days following transfection with the indicated plasmids, G418 (750 μg/ml) was added to the culture media; and at day 14, the cells were stained using gentian violet. Untransfected cells were treated similarly, and all died within the 2 weeks of culture in the selection media. Quantification of the results was performed using AlphaImager 2000 (Alpha Innotech, CA).\nThe effect of klotho protein on growth of breast cancer cells was first assessed using colony formation assays. MCF-7, MDA-MB-231 and the non-cancerous human embryonic kidney (HEK) 293 cells were transfected with either a HA-tagged klotho protein expression vector (pcDNA3-HI-A-KL) or an empty vector (pcDNA3). Transfected cells were cultured in media containing G418 for two weeks and stained to determine the number of surviving colonies."}, "p53 levels in HEK 293": {"system": "p53 levels in HEK 293", "assay": "Immunoblot of p53 and PARP after klotho protein over-expression", "type": "cell-based, human", "method": "(§1) For breast cells, cells were harvested and lysed for total protein extraction in RIPA buffer (50 mM Tris-Cl pH 7.4, 150 mM NaCl, 1% NP-40, 0.25% Na-deoxycholate, 1 mM EDTA, 1 mM NaF) together with a protease inhibitor cocktail (Sigma). 50 μg protein extracts were loaded on 10% polyacrylamide gels, separated electrophoretically and blotted from the gel onto nitrocellulose membrane (Schleicher & Schuell Bioscience GmbH, Dassel, D E). The membranes were then immunoblotted with the indicated antibodies.\n(§2) In fibroblasts, klotho protein reduces senescence through down-regulation of p53 (de Oliveira, 2006). The effects of klotho protein on p53 levels in MCF-7 breast cancer cells and HEK 293 were therefore analyzed."}, "[2]": {"system": "p53 levels in MCF-7 cells", "assay": "Immunoblot of p53 and PARP after klotho protein over-expression", "type": "cell-based, human", "method": "as §1, §2"}, "MCF-7 cells": {"system": "MCF-7 cells", "assay": "IGF-1-induced MCF-7 proliferation after klotho protein transfection", "type": "cell-based, human", "details": "HA-KL-transfected cells, 0.5% serum, IGF-1 24-96 hr; control pcDNA3 cells up to 40%", "method": "The medium was aspirated, and the cells were dissolved by dimethyl sulfoxide (DMSO).\nKlotho protein is known to inhibit activation of the IGF-1 pathway in L6 myoblasts cells and rat hepatoma H4IIE cells (Kurosu et al., 2005). This pathway plays an important role in breast cancer tumorigenesis, and IGF-1 induces MCF-7 cell proliferation (Geier et al., 1995; Yee, 2006). In order to test the ability of klotho protein to modulate IGF-1-induced proliferation and survival, MCF-7 cells were transiently transfected with either pcDNA3 or pcDNA3-HA-KL, and grown in 0.5% serum with either IGF-1 or a control vehicle for 24-96 hr."}, "C/EBPβ in MCF-7 cells": {"system": "C/EBPβ in MCF-7 cells", "assay": "C/EBPβ levels after klotho protein over-expression", "type": "cell-based, human", "details": "over-expression vs empty vector", "method": "In further experiments, MCF-7, MDA-MB-231 or HEK-293 cells were transfected with either pcDNA3-HA-KL or empty vector and treated with IGF-1 (12.5 nM, 15 min).\nC/EBPβ is a down-stream target of the GSK3β pathway, which is suppressed following stimulation by IGF-1 (Li et al., 2007). […] The effects of over-expression of klotho protein on C/EBPβ levels were therefore analyzed."}, "[3]": {"system": "insulin pathway in MCF-7 cells", "assay": "Insulin pathway activation after klotho protein over-expression", "type": "cell-based, human", "details": "insulin stimulation"}, "[4]": {"system": "insulin pathway in HEK 293 cells", "assay": "Insulin pathway activation after klotho protein over-expression", "type": "cell-based, human", "details": "insulin stimulation"}, "IGF-1R": {"target": "T1, IGF-1R (Homo sapiens, UniProt P08069)", "T1 construct": "endogenous in cells; host or cells: MCF-7 cells expressing HA-klotho (stably or transiently)", "T1 sequence (P08069 31-1367)": "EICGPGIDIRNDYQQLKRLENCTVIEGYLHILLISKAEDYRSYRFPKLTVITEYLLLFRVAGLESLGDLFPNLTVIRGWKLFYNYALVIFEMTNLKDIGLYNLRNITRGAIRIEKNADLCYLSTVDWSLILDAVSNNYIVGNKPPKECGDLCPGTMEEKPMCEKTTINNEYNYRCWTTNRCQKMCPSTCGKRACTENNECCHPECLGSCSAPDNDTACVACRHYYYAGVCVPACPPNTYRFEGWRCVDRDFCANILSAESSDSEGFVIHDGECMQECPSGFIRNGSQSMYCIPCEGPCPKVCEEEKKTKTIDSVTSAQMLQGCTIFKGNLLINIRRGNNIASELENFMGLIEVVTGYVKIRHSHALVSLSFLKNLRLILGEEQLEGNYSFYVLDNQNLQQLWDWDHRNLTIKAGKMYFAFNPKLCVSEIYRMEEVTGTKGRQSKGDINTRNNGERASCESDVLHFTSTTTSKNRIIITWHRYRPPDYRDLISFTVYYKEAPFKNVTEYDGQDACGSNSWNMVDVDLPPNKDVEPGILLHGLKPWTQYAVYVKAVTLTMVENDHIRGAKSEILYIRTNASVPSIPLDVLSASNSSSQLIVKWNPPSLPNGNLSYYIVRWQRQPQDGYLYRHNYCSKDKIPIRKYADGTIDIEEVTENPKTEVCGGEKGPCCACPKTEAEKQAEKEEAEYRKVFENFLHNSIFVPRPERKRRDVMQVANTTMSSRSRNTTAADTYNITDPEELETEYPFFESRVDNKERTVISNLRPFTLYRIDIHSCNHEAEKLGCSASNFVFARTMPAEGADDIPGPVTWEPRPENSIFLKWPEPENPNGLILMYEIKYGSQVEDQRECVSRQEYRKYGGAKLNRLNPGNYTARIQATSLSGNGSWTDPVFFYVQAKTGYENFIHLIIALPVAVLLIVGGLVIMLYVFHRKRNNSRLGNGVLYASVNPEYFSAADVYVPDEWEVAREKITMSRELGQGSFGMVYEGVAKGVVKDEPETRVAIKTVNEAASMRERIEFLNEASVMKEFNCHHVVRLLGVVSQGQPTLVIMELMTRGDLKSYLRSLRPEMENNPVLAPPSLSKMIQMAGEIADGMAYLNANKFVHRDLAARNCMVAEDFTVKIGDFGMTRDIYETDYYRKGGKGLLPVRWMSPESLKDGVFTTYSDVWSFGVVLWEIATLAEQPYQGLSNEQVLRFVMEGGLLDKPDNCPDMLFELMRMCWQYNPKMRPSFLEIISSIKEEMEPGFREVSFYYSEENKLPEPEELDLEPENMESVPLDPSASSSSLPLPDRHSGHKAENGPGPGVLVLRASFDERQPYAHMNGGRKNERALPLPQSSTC", "assay": "Co-immunoprecipitation of HA-klotho protein and IGF-1R in MCF-7 cells", "type": "binding", "details": "MCF-7 cells expressing HA-klotho protein", "method": "Cells were harvested as for Western blot, and 400 μg protein lysate were incubated with IgG-Sepharose (Sigma) or protein A/G (Pierce, Rockford, Ill.) beads at 4° C. for 1 h to eliminate non-specifically bound proteins. These beads were subsequently used as a negative control. The supernatants were then incubated for 4 hours with either 2 μg anti-HA antibody (Sigma) or 2 μl of anti-IGF-1β-R (Santa Cruz Biotechnology) and IgG-Sepharose or protein A/G (Pierce, Rockford, Ill.), respectively, was added. Following an overnight incubation, the beads were washed 6 times in RIPA buffer and the immunoprecipitated materials were separated by SDS-PAGE and detected by Western blotting.\nAs klotho protein can bind FGFR and other membrane proteins, binding of klotho protein to the IGF-1R was examined. Co-immunoprecipitation assays were conducted using MCF-7 cells either stably (FIG. 10) or transiently (data not shown) expressing HA-klotho protein. HA-klotho protein was detected by Western blotting following immunoprecipitation of the IGF-1R, and the IGF-1R was detected following immunoprecipitation using HA-directed antibody."}, "[5]": {"system": "Colo357, MiaPaCa2, and Panc1", "assay": "Colony formation assay of pancreatic carcinoma cell lines transfected with klotho protein vector", "type": "cell-based, human", "details": "pcDNA3-HA-KL vs empty vector; G418 two weeks", "method": "Two days following transfection with the indicated plasmids, G418 (900 μg/ml for Panc1, 1000 μg/ml for MiaPaCa2 and 750 μg/ml for Colo357, HEK-293 and BON1) was added to the culture media. At day 14, cells were stained using crystal violet (Sigma-Aldrich) and quantitated as described (Wolf et al., 2008).\nFor the colony formation assay, pancreatic carcinoma cell lines Colo357, MiaPaCa2, and Panc1 were transfected with either a HA-tagged klotho protein expression vector (pcDNA3-HA-KL) or an empty vector (pcDNA3). Transfected cells were cultured in media containing G418 for two weeks. Colonies were stained with crystal violet and photographed."}, "[6]": {"system": "IGF-1 pathway in Panc1 cells", "assay": "IGF-1 pathway in Panc1 cells after klotho protein over-expression (immunoblot)", "type": "cell-based, human", "details": "IGF-1 12.5 nM, 15 min", "method": "For pancreatic cells, protein extraction and Western blotting was performed as described (Wolf et al., 2008).\nPanc1 cells were transfected with either klotho protein-HA expression plasmid (KL-HA) or a control vector (pcDNA3). After 24 hrs, cells were serum starved for 48 hr and treated with IGF-1 (12.5 nM, 15 min). Following treatment, cells were harvested and proteins were resolved and immunoblotted using antibodies directed against phosphorylated (p) and total (t) IGF-1R, p- and t-AKT, p- and t-ERK1/2."}}, "data": [{"molecule": "klotho protein: full length mouse Klotho (SEQ ID NO. 3) over-expressed in cells from HA-tagged expression vector pcDNA3-HA-KL (protein, HA tag) MLARAPPRRPPRLVLLRLLLLHLLLLALRARCLSAEPGQGAQTWARFARAPAPEAAGLLHDTFPDGFLWAVGSAAYQTEGGWRQHGKGASIWDTFTHHSGAAPSDSPIVVAPSGAPSPPLSSTGDVASDSYNNVYRDTEGLRELGVTHYRFSISWARVLPNGTAGTPNREGLRYYRRLLERLRELGVQPVVTLYHWDLPQRLQDTYGGWANRALADHFRDYAELCFRHFGGQVKYWITIDNPYVVAWHGYATGRLAPGVRGSSRLGYLVAHNLLLAHAKVWHLYNTSFRPTQGGRVSIALSSHWINPRRMTDYNIRECQKSLDFVLGWFAKPIFIDGDYPESMKNNLSSLLPDFTESEKRLIRGTADFFALSFGPTLSFQLLDPNMKFRQLESPNLRQLLSWIDLEYNHPPIFIVENGWFVSGTTKRDDAKYMYYLKKFIMETLKAIRLDGVDVIGYTAWSLMDGFEWHRGYSIRRGLFYVDFLSQDKELLPKSSALFYQKLIEDNGFPPLPENQPLEGTFPCDFAWGVVDNYVQVDTTLSQFTDPNVYLWDVHHSKRLIKVDGVVAKKRKPYCVDFSAIRPQITLLREMRVTHFRFSLDWALILPLGNQTQVNHTVLHFYRCMISELVHANITPVVALWQPAAPHQGLPHALAKHGAWENPHTALAFADYANLCFKELGHWVNLWITMNEPNTRNMTYRAGHHLLRAHALAWHLYDDKFRAAQKGKISIALQADWIEPACPFSQNDKEVAERVLEFDIGWLAEPIFGSGDYPRVMRDWLNQKNNFLLPYFTEDEKKLVRGSFDFLAVSHYTTILVDWEKEDPMKYNDYLEVQEMTDITWLNSPSQVAVVPWGLRKVLNWLRFKYGDLPMYVTANGIDDDPHAEQDSLRIYYIKNYVNEALKAYVLDDINLCGYFAYSLSDRSAPKSGFYRYAANQFEPKPSMKHYRRIIDSNGFLGSGTLGRFCPEEYTVCTECGFFQTRKSLLVFISFLVFTFIISLALIFHYSKKGQRSYK", "values": [{"measurement": "effect on HEK 293 growth (colony assay)", "setting": "[1]", "value": "no effect"}, {"measurement": "expression or cleavage of PARP", "setting": "p53 levels in HEK 293", "value": "No changes"}, {"measurement": "p53 levels", "setting": "p53 levels in HEK 293", "value": "reduce"}, {"measurement": "expression or cleavage of PARP", "setting": "[2]", "value": "No changes"}, {"measurement": "p53 levels", "setting": "[2]", "value": "increase"}, {"measurement": "increase of cell proliferation by IGF-1", "setting": "MCF-7 cells", "value": 25, "unit": "%"}, {"measurement": "C/EBPβ levels", "setting": "C/EBPβ in MCF-7 cells", "value": "significant up-regulation"}, {"measurement": "activation of the insulin pathway", "setting": "[3]", "value": "inhibited"}, {"measurement": "activation of the insulin pathway", "setting": "[4]", "value": "not"}, {"measurement": "interaction with the IGF-1 receptor (co-immunoprecipitation)", "setting": "IGF-1R", "value": "interaction"}, {"measurement": "number and size of surviving colonies", "setting": "[5]", "value": "significantly reduced"}, {"measurement": "phosphorylation of IGF-1R, AKT1 and ERK1/2", "setting": "[6]", "value": "reduced phosphorylation"}]}]}
